Test results reported in article PMC9105409 (2022).

T1: Recombinant CYP26A1 (UniProt O43174)
T1 sequence: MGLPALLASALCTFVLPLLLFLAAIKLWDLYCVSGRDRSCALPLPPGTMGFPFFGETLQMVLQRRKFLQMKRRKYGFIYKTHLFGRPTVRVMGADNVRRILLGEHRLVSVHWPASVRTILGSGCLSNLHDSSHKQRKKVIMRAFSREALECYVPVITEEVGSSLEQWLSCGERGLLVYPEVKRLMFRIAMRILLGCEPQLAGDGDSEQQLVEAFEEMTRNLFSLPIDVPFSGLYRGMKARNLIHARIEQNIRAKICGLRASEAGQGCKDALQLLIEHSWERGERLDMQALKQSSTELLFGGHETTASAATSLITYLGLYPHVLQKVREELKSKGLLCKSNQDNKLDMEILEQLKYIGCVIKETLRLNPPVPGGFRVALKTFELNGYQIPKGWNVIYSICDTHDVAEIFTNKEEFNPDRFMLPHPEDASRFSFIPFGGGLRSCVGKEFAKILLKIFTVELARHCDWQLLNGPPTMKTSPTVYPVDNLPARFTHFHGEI

T2: CYP26A1 (Homo sapiens, UniProt O43174)
T2 chain: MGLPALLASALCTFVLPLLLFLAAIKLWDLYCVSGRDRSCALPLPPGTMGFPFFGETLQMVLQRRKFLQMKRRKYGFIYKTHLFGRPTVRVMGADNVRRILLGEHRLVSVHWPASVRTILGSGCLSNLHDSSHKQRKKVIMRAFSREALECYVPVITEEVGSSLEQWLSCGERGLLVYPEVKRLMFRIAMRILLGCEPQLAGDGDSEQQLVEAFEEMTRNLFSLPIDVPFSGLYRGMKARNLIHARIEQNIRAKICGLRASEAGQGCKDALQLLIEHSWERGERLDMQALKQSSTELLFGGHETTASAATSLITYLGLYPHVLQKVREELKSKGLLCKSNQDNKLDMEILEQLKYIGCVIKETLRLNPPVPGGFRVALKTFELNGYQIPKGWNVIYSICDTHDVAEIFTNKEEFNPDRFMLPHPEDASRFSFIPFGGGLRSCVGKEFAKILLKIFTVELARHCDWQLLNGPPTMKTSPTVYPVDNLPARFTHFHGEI


Assays:
Recombinant CYP26A1 = target: T1, Recombinant CYP26A1
CYP26A1 = target: T2, CYP26A1; assay: enzyme inhibition kinetics

Chain of Cellular retinoic acid binding protein 1 (CRABP1) (P29762 whole entry): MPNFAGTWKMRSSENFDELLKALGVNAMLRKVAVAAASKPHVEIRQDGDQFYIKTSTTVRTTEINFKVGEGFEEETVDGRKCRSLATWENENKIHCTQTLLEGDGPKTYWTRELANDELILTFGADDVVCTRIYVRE

Row | Molecule | αKm (affinity of holo-CRABP1, with atRA bound, for CYP26A1), from a global fit of the protein-protein interaction model (Equation 3) to 4-OH-atRA formation velocities (Recombinant CYP26A1) [nM] | αKm (affinity of holo-CRABP2, with atRA bound, for CYP26A1), from a global fit of the protein-protein interaction model (Equation 3) to 4-OH-atRA formation velocities (Recombinant CYP26A1) [nM] | Ki (CYP26A1) [pM]
1 | Cellular retinoic acid binding protein 1 (CRABP1) (from UniProt P29762 1-137) (natural protein) | 0.99 | – | –
2 | CRABP2 (protein) MPNFSGNWKIIRSENFEELLKVLGVNVMLRKIAVAAASKPAVEIKQEGDTFYIKTSTTVRTTEINFKVGEEFEEQTVDGRPCKSLVKWESENKMVCEQKLLKGEGPKTSWTRELTNDGELILTMTADDVVCTRVYVRE | – | 0.75 | 530
